Reference: US20160272995A1, “MANIPULATION OF PLASMODESMAL CONNECTIVITY TO IMPROVE PLANT YIELD AND FITNESS” (UNIVERSITY OF DELAWARE, priority 2013, published 2016)

Legend:
Type in all cases: in vivo
[1] = system: Nicotiana benthamiana leaves; assay: Transient expression via Agrobacteria-infiltration, extent of viral movement; conditions: transient expression in Nicotiana benthamiana leaves
Procedure: (a) Schematics of PDLP5-m5, PDLP5-C, and PDLP5-2C mutants as created by overlapping PCR. (b) Transient expression of mutants in Nicotiana benthamiana leaves.
We also created mutants altering just two cysteines (“CC”, residues 288 and 289 of the C-terminal tail region) or a single cysteine (“C”, residue 298 of the C-terminal tail region) residues to A1a. The phenotypes of these partial mutants, as well as the PDLP5-OX, pldp5-1 and PDLP5-m5, were tested in transient expression in Nicotiana benthamiana leaves via Agrobacteria-infiltration, targeting the extent of viral movement for comparison.

Arabidopsis thaliana [2] = assay: Primary and lateral root quantification in seedlings
Procedure: (A) Lateral root development in wild type (WT) plants, plants having a severe knock down of PDLP5 (pdlp5-1), and plants overexpressing PDLP5 (PDLPOE) expressing DR5:GUS. Arrowheads indicate tertiary roots. (B) Quantification of total lateral root numbers (both emerged and unemerged secondary [2°], tertiary [3°], and quaternary [4°] roots). n≧30 per seedling set. Bars, standard deviation. Stars, significance determined by student T-test (P<0.01). (C) A diagram depicting several stages of LRP emergence. (D) Percent distribution of LRP stages, recorded at root bend at indicated time points following gravistimulation at 3 dpg. n≧20 seedlings per set.
(A-C) GUS-stained 11-day-old seedlings expressing DR5:GUS in wild type (WT) Col-0 plants (A), plants having a severe knock down of PDLP5 (pdlp5-1) (B), and plants overexpressing PDLP5 (PDLPOE) (C). Size bar in (A), common to (B) and (C). (D) Measurement of primary root length in 10-day-old wild type (WT) seedlings, seedlings having a severe knock down of PDLP5 (pdlp5-1), and seedlings overexpressing PDLP5 (PDLPOE). n=30 seedling per line. (E) Measurement of % emerged lateral root (LR) of total secondary roots in 10-day-old WT, pdlp5-1, and PDLP5OE seedlings. n=30 seedling per line. (F) Measurement of average secondary root length per seedling in 7-day-old WT and pdlp5-1. n=28 seedlings per line.
To investigate the importance of PD function during lateral root emergence, PDLP5 loss-of-function and over-expressing lines were characterized. […] Furthermore, this reduction in secondary root development was reiterated in later stages of root branching, with PDLP5OE showing reduced tertiary root occurrence (26% and 50% of WT at 8 and 11 day post germination [dpg], respectively). […] Lateral roots were 1.4-fold longer on average in pdlp5-1 than WT (FIG. 17F) at 7 dpg and later. […] Given the overall increase in average secondary root length in pdlp5-1, we conclude that the higher occurrence of tertiary and quaternary root formation can be attributed to an accelerated secondary root growth.
All Arabidopsis thaliana genotypes were in the Col-0 genetic background, except for shy2-2 in Ler, and iaa28-1 in Ws. Seedlings were grown vertically in 0.5X MS agar under a continuous light at 22° C. Plants in soil were grown in a 16 hr light, 22° C. All the genetic crosses (see Table 5) were selfed, and genotyped to identify homozygous mutations when necessary. Genomic DNA was isolated from segregating F2 plants followed by PCR analyses using gene-specific primers (see Table 6).
GUS solution (100 mM sodium phosphate buffer, pH 7.0, 10 mM EDTA, 0.5 mM each potassium ferrocyanide and potassium ferricyanide, 1.24 mM X-Gluc, and 0.1% Triton X-100) was vacuum-infiltrated into plant tissue for five minutes, then removed from vacuum and incubated in 37° C. for 3 to 12 hrs, followed by a series of ethanol washes. Stained tissues were imaged using Zeiss Axioskop 2 microscope. LRP were quantified by counting both the emerged LR and unemerged LR, as determined by DRS::GUS staining of the primordia, under a dissecting microscope (1.2× magnification). LRP stages were determined by examining ethanol-cleared, GUS-stained tissue using 40× water lens.

Arabidopsis thaliana [3] = assay: Vegetative growth, flowering and seed yield of plants; conditions: 22-20° C., 16/8 hours light/darkness
Procedure: Wild type (WT) plants, plants overexpressing […]), and plants with a severe knock down of […] used as comparisons. (a) Whole plants at 10, 14, and 18 days post germination (dpg). Plants were grown at 22-20° C. with 50% humidity and with 16/8 hours light/darkness. (b) Leaves at 3 weeks post germination. Plants were grown at 24-22° C. with 70% humidity and with 16/8 hours light/darkness. […] Wild type (WT) plants, plants overexpressing PDLP5 (OX), and plants with a severe knock down of PDLP5 (KO) were used as comparisons. […] Seeds were germinated on plates, were transferred to soil after 1 week, and plants were grown at 22-20° C. with 16/8 hours light/darkness. […] Wild type (WT) plants and plants overexpressing […]) were used as comparisons. Plants were grown at 24-22° C. with 70% humidity and with 16/8 hours light/darkness. […] The sequence of the PCR product was confirmed followed by transformation of Top10 E. coli competent cells. […] Agrobacteria were transformed with the […]5 clone.

B1: PDLP5OE: Wild-type A. thaliana PDLP5 protein (SEQ ID NO:4) constitutively overexpressed in plants under the 35S promoter (protein, listed as Arabidopsis thaliana)
chain: MIKTKTTSLLCFLLTAVILMNPSSSSPTDNYIYAVCSPAKFSPSSGYETNLNSLLSSFVTSTAQTRYANFTVPTGKPEPTVTVYGIYQCRGDLDPTACSTCVSSAVAQVGALCSNSYSGFLQMENCLIRYDNKSFLGVQDKTLILNKCGQPMEFNDQDALTKASDVIGSLGTGDGSYRTGGNGNVQGVAQCSGDLSTSQCQDCLSDAIGRLKSDCGMAQGGYVYLSKCYARFSVGGSHARQTPGPNFGHEGEKGNKDDNGVGKTLAIIIGIVTLIILLVVFLAFVGKCCRKLQDEKWCK
- extent of viral movement [1]: delay in viral movement
- secondary roots, % of WT number (Arabidopsis thaliana [2]; 8 dpg): 66%
- tertiary root occurrence, % of WT (Arabidopsis thaliana [2]; 8 dpg): 26%
- emerged LRP among total secondary roots, % of that found in WT (Arabidopsis thaliana [2]; 10-day-old seedlings): 50%
- secondary roots, % of WT number (Arabidopsis thaliana [2]; 11 dpg): 77%
- tertiary root occurrence, % of WT (Arabidopsis thaliana [2]; 11 dpg): 50%
- reduction in the primary root length (Arabidopsis thaliana [2]; ten-day-old seedlings, compared to WT): approximately 30%
- rosette diameter (Arabidopsis thaliana [3]): reduced rosette diameter
